# Substitutions are numbered along the chain they refer to. Names may count otherwise.
# B1: dBBDu183H G65S / dBBDu072L (antibody, name in Kabat numbering, V domains shown)
# VH: QVQLVESGGGLVQPGRSLRLSCAASGFTFSNAWMHWVRQAPGKGLEWVAQIKDKGNAYAAYYAPSVKSRFTISRDDSKNSIYLQMNSLKTEDTAVYYCHYVHYASASTVLPAFGVDAWGQGTTVTVSS
# VL: DIVMTQSPLSLPVTPGEPASISCQASQELVHMNRNTYLHWYQQKPGQAPRLLIYKVSNRFPGVPDRFSGSGSGTDFTLKISRVEAEDVGVYYCAQGTSVPFTFGQGTKLEIK
# notes: as m1, one VH change
# B2: dBBDu183H G65T / dBBDu072L (antibody, name in Kabat numbering, V domains shown)
# VH: B1 VH with S68T
# VL: B1 VL
# notes: as m1, one VH change
# B3: dBBDu183H G65V / dBBDu072L (antibody, name in Kabat numbering, V domains shown)
# VH: B1 VH with S68V
# VL: B1 VL
# notes: as m1, one VH change
# B4: dBBDu183H G65W / dBBDu072L (antibody, name in Kabat numbering, V domains shown)
# VH: B1 VH with S68W
# VL: B1 VL
# notes: as m1, one VH change
# B5: dBBDu183H G65Y / dBBDu072L (antibody, name in Kabat numbering, V domains shown)
# VH: B1 VH with S68Y
# VL: B1 VL
# notes: as m1, one VH change
# B6: dBBDu183H H93N / dBBDu072L (antibody, name in Kabat numbering, V domains shown)
# VH: B1 VH with S68G, H99N
# VL: B1 VL
# notes: as m1, one VH change
# B7: dBBDu183H H96F / dBBDu072L (antibody, name in Kabat numbering, V domains shown)
# VH: B1 VH with S68G, H102F
# VL: B1 VL
# notes: as m1, one VH change
# B8: dBBDu183H H96T / dBBDu072L (antibody, name in Kabat numbering, V domains shown)
# VH: B1 VH with S68G, H102T
# VL: B1 VL
# notes: as m1, one VH change
# B9: dBBDu183H H96V / dBBDu072L (antibody, name in Kabat numbering, V domains shown)
# VH: B1 VH with S68G, H102V
# VL: B1 VL
# notes: as m1, one VH change
# B10: dBBDu183H H96W / dBBDu072L (antibody, name in Kabat numbering, V domains shown)
# VH: B1 VH with S68G, H102W
# VL: B1 VL
# notes: as m1, one VH change
# B11: dBBDu183H H96Y / dBBDu072L (antibody, name in Kabat numbering, V domains shown)
# VH: B1 VH with S68G, H102Y
# VL: B1 VL
# notes: as m1, one VH change
# B12: dBBDu183H K64D / dBBDu072L (antibody, name in Kabat numbering, V domains shown)
# VH: B1 VH with K67D, S68G
# VL: B1 VL
# notes: as m1, one VH change
# B13: dBBDu183H K64F / dBBDu072L (antibody, name in Kabat numbering, V domains shown)
# VH: B1 VH with K67F, S68G
# VL: B1 VL
# notes: as m1, one VH change
# B14: dBBDu183H K64G / dBBDu072L (antibody, name in Kabat numbering, V domains shown)
# VH: B1 VH with K67G, S68G
# VL: B1 VL
# notes: as m1, one VH change
# B15: dBBDu183H K64H / dBBDu072L (antibody, name in Kabat numbering, V domains shown)
# VH: B1 VH with K67H, S68G
# VL: B1 VL
# notes: as m1, one VH change
# B16: dBBDu183H K64N / dBBDu072L (antibody, name in Kabat numbering, V domains shown)
# VH: B1 VH with K67N, S68G
# VL: B1 VL
# notes: as m1, one VH change
# B17: dBBDu183H K64Q / dBBDu072L (antibody, name in Kabat numbering, V domains shown)
# VH: B1 VH with K67Q, S68G
# VL: B1 VL
# notes: as m1, one VH change
# B18: dBBDu183H K64R / dBBDu072L (antibody, name in Kabat numbering, V domains shown)
# VH: B1 VH with K67R, S68G
# VL: B1 VL
# notes: as m1, one VH change
# B19: dBBDu183H K64S / dBBDu072L (antibody, name in Kabat numbering, V domains shown)
# VH: B1 VH with K67S, S68G
# VL: B1 VL
# notes: as m1, one VH change
# B20: dBBDu183H K64T / dBBDu072L (antibody, name in Kabat numbering, V domains shown)
# VH: B1 VH with K67T, S68G
# VL: B1 VL
# notes: as m1, one VH change
# B21: dBBDu183H K64V / dBBDu072L (antibody, name in Kabat numbering, V domains shown)
# VH: B1 VH with K67V, S68G
# VL: B1 VL
# notes: as m1, one VH change
# B22: dBBDu183H K64W / dBBDu072L (antibody, name in Kabat numbering, V domains shown)
# VH: B1 VH with K67W, S68G
# VL: B1 VL
# notes: as m1, one VH change
# B23: dBBDu183H K64Y / dBBDu072L (antibody, name in Kabat numbering, V domains shown)
# VH: B1 VH with K67Y, S68G
# VL: B1 VL
# notes: as m1, one VH change
# B24: dBBDu183H L100dE / dBBDu072L (antibody, name in Kabat numbering, V domains shown)
# VH: B1 VH with S68G, L110E
# VL: B1 VL
# notes: as m1, one VH change
# B25: dBBDu183H L100dK / dBBDu072L (antibody, name in Kabat numbering, V domains shown)
# VH: B1 VH with S68G, L110K
# VL: B1 VL
# notes: as m1, one VH change
# B26: dBBDu183H L100dQ / dBBDu072L (antibody, name in Kabat numbering, V domains shown)
# VH: B1 VH with S68G, L110Q
# VL: B1 VL
# notes: as m1, one VH change
# B27: dBBDu183H L100dS / dBBDu072L (antibody, name in Kabat numbering, V domains shown)
# VH: B1 VH with S68G, L110S
# VL: B1 VL
# notes: as m1, one VH change
# B28: dBBDu183H L100dV / dBBDu072L (antibody, name in Kabat numbering, V domains shown)
# VH: B1 VH with S68G, L110V
# VL: B1 VL
# notes: as m1, one VH change
# B29: dBBDu183H L100dW / dBBDu072L (antibody, name in Kabat numbering, V domains shown)
# VH: B1 VH with S68G, L110W
# VL: B1 VL
# notes: as m1, one VH change
# B30: dBBDu183H P61D / dBBDu072L (antibody, name in Kabat numbering, V domains shown)
# VH: B1 VH with P64D, S68G
# VL: B1 VL
# notes: as m1, one VH change
# B31: dBBDu183H P61E / dBBDu072L (antibody, name in Kabat numbering, V domains shown)
# VH: B1 VH with P64E, S68G
# VL: B1 VL
# notes: as m1, one VH change
# B32: dBBDu183H P61F / dBBDu072L (antibody, name in Kabat numbering, V domains shown)
# VH: B1 VH with P64F, S68G
# VL: B1 VL
# notes: as m1, one VH change
# B33: dBBDu183H P61G / dBBDu072L (antibody, name in Kabat numbering, V domains shown)
# VH: B1 VH with P64G, S68G
# VL: B1 VL
# notes: as m1, one VH change
# B34: dBBDu183H P61H / dBBDu072L (antibody, name in Kabat numbering, V domains shown)
# VH: B1 VH with P64H, S68G
# VL: B1 VL
# notes: as m1, one VH change
# B35: dBBDu183H P61K / dBBDu072L (antibody, name in Kabat numbering, V domains shown)
# VH: B1 VH with P64K, S68G
# VL: B1 VL
# notes: as m1, one VH change
# B36: dBBDu183H P61N / dBBDu072L (antibody, name in Kabat numbering, V domains shown)
# VH: B1 VH with P64N, S68G
# VL: B1 VL
# notes: as m1, one VH change
# B37: dBBDu183H P61Q / dBBDu072L (antibody, name in Kabat numbering, V domains shown)
# VH: B1 VH with P64Q, S68G
# VL: B1 VL
# notes: as m1, one VH change
# B38: dBBDu183H P61R / dBBDu072L (antibody, name in Kabat numbering, V domains shown)
# VH: B1 VH with P64R, S68G
# VL: B1 VL
# notes: as m1, one VH change
# B39: dBBDu183H P61S / dBBDu072L (antibody, name in Kabat numbering, V domains shown)
# VH: B1 VH with P64S, S68G
# VL: B1 VL
# notes: as m1, one VH change
# B40: dBBDu183H P61T / dBBDu072L (antibody, name in Kabat numbering, V domains shown)
# VH: B1 VH with P64T, S68G
# VL: B1 VL
# notes: as m1, one VH change
# B41: dBBDu183H P61W / dBBDu072L (antibody, name in Kabat numbering, V domains shown)
# VH: B1 VH with P64W, S68G
# VL: B1 VL
# notes: as m1, one VH change
# B42: dBBDu183H P61Y / dBBDu072L (antibody, name in Kabat numbering, V domains shown)
# VH: B1 VH with P64Y, S68G
# VL: B1 VL
# notes: as m1, one VH change
# B43: dBBDu183H P100eD / dBBDu072L (antibody, name in Kabat numbering, V domains shown)
# VH: B1 VH with S68G, P111D
# VL: B1 VL
# notes: as m1, one VH change
# B44: dBBDu183H P100eE / dBBDu072L (antibody, name in Kabat numbering, V domains shown)
# VH: B1 VH with S68G, P111E
# VL: B1 VL
# notes: as m1, one VH change
# B45: dBBDu183H P100eG / dBBDu072L (antibody, name in Kabat numbering, V domains shown)
# VH: B1 VH with S68G, P111G
# VL: B1 VL
# notes: as m1, one VH change
# B46: dBBDu183H P100eH / dBBDu072L (antibody, name in Kabat numbering, V domains shown)
# VH: B1 VH with S68G, P111H
# VL: B1 VL
# notes: as m1, one VH change
# B47: dBBDu183H P100eK / dBBDu072L (antibody, name in Kabat numbering, V domains shown)
# VH: B1 VH with S68G, P111K
# VL: B1 VL
# notes: as m1, one VH change
# Molecular target: T1, Human CD137 ECD (human)
# T1 construct: also called 4-1BB
# Experiment: SPR, vs parent H183/L072
# T1 sequence (chain, as listed by the source limits assumed): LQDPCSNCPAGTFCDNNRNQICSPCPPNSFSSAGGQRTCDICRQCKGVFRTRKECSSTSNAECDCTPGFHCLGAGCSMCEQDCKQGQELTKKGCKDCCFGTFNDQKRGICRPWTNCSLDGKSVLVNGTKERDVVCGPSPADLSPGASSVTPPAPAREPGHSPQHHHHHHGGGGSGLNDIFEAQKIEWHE
row,Binder,fold change of affinity
1,B1,1.2 fold
2,B2,1.3 fold
3,B3,1.2 fold
4,B4,1.3 fold
5,B5,1.3 fold
6,B6,0.1 fold
7,B7,1.4 fold
8,B8,0.5 fold
9,B9,0.8 fold
10,B10,1.6 fold
11,B11,3.3 fold
12,B12,1.1 fold
13,B13,1.1 fold
14,B14,1.1 fold
15,B15,1.1 fold
16,B16,1 fold
17,B17,1.1 fold
18,B18,1.1 fold
19,B19,1.2 fold
20,B20,1.1 fold
21,B21,1 fold
22,B22,1.2 fold
23,B23,1.1 fold
24,B24,0.4 fold

row,Binder,fold change of affinity
1,B25,0.7 fold
2,B26,0.5 fold
3,B27,0.5 fold
4,B28,0.5 fold
5,B29,0.2 fold
6,B30,0.7 fold
7,B31,0.7 fold
8,B32,0.7 fold
9,B33,1 fold
10,B34,0.9 fold
11,B35,0.8 fold
12,B36,1.2 fold
13,B37,0.6 fold
14,B38,1 fold
15,B39,1.1 fold
16,B40,1.4 fold
17,B41,0.8 fold
18,B42,0.7 fold
19,B43,0.3 fold
20,B44,0.8 fold
21,B45,0.4 fold
22,B46,0.1 fold
23,B47,0.3 fold

# Source: patent US20210388087A1 (Chugai, published 2021)
